The supplement of paper PMC7877785
± gives the uncertainty stated by the source.

Test: self-splicing fitness, log relative to wild type (ln ratio); higher = more splicing; Tetrahymena group I intron in knt gene, E. coli kanamycin selection, DiMSum; sequences stand for … in CUCUCU…GGAGGGAAAAGUUAUCAGGCAUGCACCUGGUAGCUAGUCUUUAAACCAAUAGAUUGCAUCGGUUUAAAAGGCAAGACCGUCAAAUUGCGGGAAAGGGGUCAACAGCCGUUCAGUACCAAGUCUCAGGGGAAACUUUGAGAUGGCCUUGCAAAGGGUAUGGUAAUAAGCUGACGGACAUGGUCCUAACCACGCAGCCAAGUCCUAAGUCAACAGAUCUUCUGUUGAUAUGGAUGCAGUUCACAGACUAAAUGUCGGUCGGGGAAGAUGUAUUCUUCUCAUAAGAUAUAGUCGGACCUCUCCUUAAUGGGAGCUAGCGGAUGAAGUGAUGCAACACUGGAGCCGCUGGGAACUAAUUUGUAUGCGAAAGUAUAUUGAUUAGUUUUGGAGUACUCGUGGUCG
Method in brief: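 DiMSum derived fitness as the error-weighted combination of fold changes across replicates, kanamycin versus no kanamycin, normalised to wild type. E. coli BL21(DE3) held the library, which randomised all eight P1ex-region intron nucleotides within the knt kanamycin-resistance gene on pET-22b(+). Six replicate transformations grew overnight at 37°C or 30°C on LB agar with or without 25 μg/mL kanamycin, also containing 100 μg/mL carbenicillin, 50 μM IPTG and 0.2% rhamnose, and pooled colonies were amplicon-sequenced on an Illumina HiSeq 2500.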

Row | Sequence | self-splicing fitness (ln) (30 °C) | self-splicing fitness (ln) (37 °C)
1 | GGCGAGCAAUAUUACGAGCG | -0.88 ± 0.14 | -0.433 ± 0.17
2 | GGCGAGCAAUAUUACGAUCG | -2.53 ± 0.21 | -0.978 ± 0.21
3 | GGCGAGCAAUAUUACGCGCA | -0.241 ± 0.17 | 0.253 ± 0.22
4 | GGCGAGCAAUAUUACGCGUG | -1.15 ± 0.19 | -0.666 ± 0.2
5 | GGCGAGCAAUAUUACGCUGA | -1.82 ± 0.2 | -2.12 ± 0.18
6 | GGCGAGCAAUAUUACGGAGA | – | -1.69 ± 0.39
7 | GGCGAGCAAUAUUACGGGAC | -2.22 ± 0.2 | -1.1 ± 0.27
8 | GGCGAGCAAUAUUACGGGAU | – | -2.21 ± 0.47
9 | GGCGAGCAAUAUUACGUGAA | -2.49 ± 0.12 | -0.0823 ± 0.13
10 | GGCGAGCAAUAUUACGUGCG | -1.65 ± 0.11 | -0.955 ± 0.1
11 | GGCGAGCAAUAUUACGUUUA | -1.4 ± 0.087 | -0.372 ± 0.11
12 | GGCUAGCAAUAUUACGACCC | -1.79 ± 0.36 | -0.966 ± 0.37
13 | GGCUAGCAAUAUUACGACUC | 0.93 ± 0.14 | 0.604 ± 0.26
14 | GGCUAGCAAUAUUACGACUG | -1.54 ± 0.16 | -0.524 ± 0.22
15 | GGCUAGCAAUAUUACGAUUA | -0.803 ± 0.085 | -0.572 ± 0.079
16 | GGCUAGCAAUAUUACGCACC | -1.61 ± 0.24 | -1.78 ± 0.26
17 | GGCUAGCAAUAUUACGCAUA | 0.253 ± 0.13 | 0.0704 ± 0.15
18 | GGCUAGCAAUAUUACGCCAU | -2.23 ± 0.22 | –
19 | GGCUAGCAAUAUUACGCGGU | -2.92 ± 0.38 | -3.63 ± 0.24
20 | GGCUAGCAAUAUUACGCUCG | -2.15 ± 0.24 | -0.647 ± 0.19
21 | GGCUAGCAAUAUUACGGAGU | -2.86 ± 0.1 | -2.02 ± 0.13
22 | GGCUAGCAAUAUUACGGCAU | -0.0766 ± 0.11 | 0.833 ± 0.13
23 | GGCUAGCAAUAUUACGGCCU | -3.3 ± 0.35 | –
24 | GGCUAGCAAUAUUACGGUAA | -0.655 ± 0.15 | -0.0661 ± 0.14
25 | GGCUAGCAAUAUUACGGUUU | 0.173 ± 0.078 | 0.305 ± 0.09
26 | GGCUAGCAAUAUUACGUCAA | -1.34 ± 0.11 | -0.747 ± 0.12
27 | GGCUAGCAAUAUUACGUCCA | -1.3 ± 0.18 | -1.05 ± 0.2

Row | Sequence | self-splicing fitness (ln) (30 °C) | self-splicing fitness (ln) (37 °C)
28 | GGCUAGCAAUAUUACGUCCG | -2.88 ± 0.3 | -0.381 ± 0.17
29 | GGCUAGCAAUAUUACGUUUC | -0.818 ± 0.11 | -0.182 ± 0.12
30 | GGGAAGCAAUAUUACGAAUA | – | -1 ± 0.2
31 | GGGAAGCAAUAUUACGACUU | 0.323 ± 0.11 | -0.202 ± 0.15
32 | GGGAAGCAAUAUUACGAGAC | -1.98 ± 0.26 | -2.1 ± 0.34
33 | GGGAAGCAAUAUUACGAGCA | -2.18 ± 0.32 | -0.522 ± 0.18
34 | GGGAAGCAAUAUUACGAUCG | 0.00926 ± 0.13 | -0.00218 ± 0.13
35 | GGGAAGCAAUAUUACGAUUU | -0.13 ± 0.1 | -0.16 ± 0.12
36 | GGGAAGCAAUAUUACGCGUG | -1.02 ± 0.076 | -0.978 ± 0.096
37 | GGGAAGCAAUAUUACGGACA | -0.34 ± 0.087 | -0.0303 ± 0.13
38 | GGGAAGCAAUAUUACGGGGC | -2.85 ± 0.34 | –
39 | GGGAAGCAAUAUUACGGUAU | -2.78 ± 0.18 | -1.63 ± 0.15
40 | GGGAAGCAAUAUUACGGUUU | -1.89 ± 0.099 | -1.07 ± 0.1
41 | GGGAAGCAAUAUUACGUAUC | -1.43 ± 0.074 | -1.03 ± 0.11
42 | GGGAAGCAAUAUUACGUGAG | -0.751 ± 0.12 | -1.46 ± 0.12
43 | GGGAAGCAAUAUUACGUGUA | -1.96 ± 0.14 | -0.669 ± 0.11
44 | GGGCAGCAAUAUUACGAGAG | -4.06 ± 0.17 | -2.82 ± 0.16
45 | GGGCAGCAAUAUUACGAUCU | -0.541 ± 0.092 | 0.124 ± 0.12
46 | GGGCAGCAAUAUUACGAUUG | -3.83 ± 0.4 | -2.84 ± 0.27
47 | GGGCAGCAAUAUUACGCCAA | -0.582 ± 0.19 | -0.176 ± 0.24
48 | GGGCAGCAAUAUUACGCCAC | -3.34 ± 0.37 | -1.22 ± 0.38
49 | GGGCAGCAAUAUUACGCCCA | -2.18 ± 0.48 | -1.26 ± 0.32
50 | GGGCAGCAAUAUUACGCGAC | -2.37 ± 0.13 | -2.17 ± 0.21
51 | GGGCAGCAAUAUUACGCGCA | -0.298 ± 0.13 | -0.184 ± 0.13
52 | GGGCAGCAAUAUUACGCUAA | -0.45 ± 0.087 | 0.361 ± 0.14
53 | GGGCAGCAAUAUUACGGCUA | -0.49 ± 0.13 | 0.227 ± 0.14
54 | GGGCAGCAAUAUUACGGCUU | -0.964 ± 0.15 | -1.14 ± 0.16

Row | Sequence | self-splicing fitness (ln) (30 °C) | self-splicing fitness (ln) (37 °C)
55 | GGGCAGCAAUAUUACGGGAG | -3.27 ± 0.22 | -2.21 ± 0.2
56 | GGGCAGCAAUAUUACGGGAU | -4.22 ± 0.42 | -1.2 ± 0.17
57 | GGGCAGCAAUAUUACGGGUU | -1.58 ± 0.12 | -0.384 ± 0.12
58 | GGGCAGCAAUAUUACGUAAC | -1.94 ± 0.18 | -0.668 ± 0.2
59 | GGGCAGCAAUAUUACGUCCG | -0.61 ± 0.091 | -0.058 ± 0.14
60 | GGGCAGCAAUAUUACGUCGC | -1.69 ± 0.1 | -1.54 ± 0.14
61 | GGGCAGCAAUAUUACGUCGG | -0.72 ± 0.12 | 0.392 ± 0.15
62 | GGGCAGCAAUAUUACGUGAU | -1.61 ± 0.11 | 0.0478 ± 0.11
63 | GGGCAGCAAUAUUACGUUCC | -2.68 ± 0.23 | -2.58 ± 0.37
64 | GGGCAGCAAUAUUACGUUCG | -0.761 ± 0.088 | -0.431 ± 0.11
65 | GGGGAGCAAUAUUACGACGA | -2.56 ± 0.4 | -1.34 ± 0.28
66 | GGGGAGCAAUAUUACGAGUA | -2.89 ± 0.3 | -2.98 ± 0.43
67 | GGGGAGCAAUAUUACGAGUU | -3.08 ± 0.45 | –
68 | GGGGAGCAAUAUUACGCGCG | -1.83 ± 0.15 | -0.952 ± 0.17
69 | GGGGAGCAAUAUUACGCGGC | – | -1.24 ± 0.49
70 | GGGGAGCAAUAUUACGCGGG | -2.7 ± 0.31 | -1.72 ± 0.39
71 | GGGGAGCAAUAUUACGCGUC | -3.26 ± 0.43 | -1.47 ± 0.23
72 | GGGGAGCAAUAUUACGCUCU | – | -2.19 ± 0.49
73 | GGGGAGCAAUAUUACGCUGG | -2.98 ± 0.47 | -0.764 ± 0.47
74 | GGGGAGCAAUAUUACGGCAU | -1.9 ± 0.13 | -1.53 ± 0.15
75 | GGGGAGCAAUAUUACGGCGG | – | -0.394 ± 0.41
76 | GGGGAGCAAUAUUACGGGAU | -3.44 ± 0.32 | -1.51 ± 0.22
77 | GGGGAGCAAUAUUACGUACG | -1.76 ± 0.16 | -0.525 ± 0.18
78 | GGGGAGCAAUAUUACGUAGG | -2.68 ± 0.2 | -1.85 ± 0.21
79 | GGGGAGCAAUAUUACGUAUU | – | -3.33 ± 0.42
